Consider two substances from article PMC7584627.

The target of assay [1] is LuS-N71-SpyTag (Aquifex aeolicus). The assay is described as follows: SDS-PAGE of the covalent conjugate, band intensities; conjugated product or conjugation mixture on SDS-PAGE with DTT; band intensity and molecular weight used to work out the molar share of conjugated nanoparticle subunit.
The target in assay [2] is ferritin-N96-SpyTag (Helicobacter pylori). The assay is described as above.

Regarding PIV3 F-SpyCatcher, the percent of nanoparticle subunit conjugated in assay [1] was determined as 68%.

Turning to RSV F-SpyCatcher, the percent of nanoparticle subunit conjugated in assay [1] was found to be 67%; in assay [2] it was 85%.
